Measured values reported in patent US7534937B2, “Genes conferring herbicide resistance” (Athenix Corporation, priority 2004, dated 2009).

Test system: E. coli strain DH5α
Test: Growth (OD600) in M63 broth containing glyphosate of cells carrying pAX299 (grg8)
Format: cell-based
Conditions: for OD600: 37° C., about 46 hours, means ± standard deviations, triplicate cultures
Experimental: The grg8 open reading frame (ORF) was amplified by PCR, cloned into the plasmid vector pCR-Blunt-II from Invitrogen, and transformed into E. coli strain DH5α. Plasmid DNA was prepared and the presence and orientation of the inserts were determined by restriction digest. One clone contained the ORF in the forward orientation with respect to the lac promoter in the vector. This plasmid was named pAX299. The insert was sequenced and the plasmid was tested for the ability to confer resistance to glyphosate.
pAX299 was tested for the ability to grow on M63 medium in the presence of glyphosate using cells containing empty vector as a control. The plasmid pAX296 in host strain DH5α was used as a negative control. This plasmid contains a fragment of tobacco genomic DNA cloned into the vector pCR-Blunt-II. Starter cultures of the two strains were grown in M63 broth with 50 μg/ml kanamycin to maintain the plasmid. The starter cultures were diluted to approximately equal cell densities, as determined by measuring OD600, then diluted 1 to 200 into 3 ml of M63 broth containing 0 to 200 mM glyphosate. Triplicate 3 ml cultures of each strain in each concentration were grown. Cultures were grown at 37° C. with constant shaking. After about 46 hours, 0.3 ml aliquots were withdrawn and the OD600 was measured. Values represent means + standard deviations.

B1: grg8: Glyphosate resistance gene from strain ATX4145 encoding a novel non-Class II EPSP synthase (SEQ ID NO:3); ORF carried in plasmid pAX299 (protein, listed as Brevundomonas vesicularis)
chain: MMMGRAKLTIIPPGKPLTGRAMPPGSKSITNRALLLAGLAKGTSRLTGALKSDDTRYMAEALRAMGVTIDEPDDTTFIVKGSGKLQPPAAPLFLGNAGTATRFLTAAAALVDGKVIVDGDAHMRKRPIGPLVDALRSLGIDASAETGCPPVTINGTGRFEASRVQIDGGLSSQYVSALLMMAAGGDRAVDVELLGEHIGALGYIDLTVAAMRAFGAKVERVSPVAWRVEPTGYHAADFVIEPDASAATYLWAAEVLSGGKIDLGTPAEQFSQPDAKAYDLISKFPHLPAVIDGSQMQDAIPTLAVLAAFNEMPVRFVGIENLRVKECDRIRALSSGLSRIVPNLGTEEGDDLIIASDPSLAGKILTAEIDSFADHRIAMSFALAGLKIGGITILDPDCVAKTFPSYWNVLSSLGVAYED
**Q.** Which results are given for B1?
**A.** OD600 (0 mM glyphosate): 1.18 ± 0.029; Glyphosate resistance (conclusion from Table 1) (0 to 200 mM glyphosate): confers resistance to high levels of glyphosate; OD600 (10 mM glyphosate): 1.15 ± 0.018; OD600 (20 mM glyphosate): 1.10 ± 0.043; OD600 (50 mM glyphosate): 1.20 ± 0.037; OD600 (100 mM glyphosate): 1.31 ± 0.024; OD600 (200 mM glyphosate): 0.05 ± 0.004
